The target of data set [1] is T1, MBP-VP5 (Helicoverpa armigera cypovirus 5 …, UniProt Q3LTV8 1-380). Briefly: EMSA; 10 pmol protein, 0.1 pmol probe; 25 mM HEPES-KOH pH 7.5, 100 mM NaCl, 10 ul, 30 min at room temperature; 2% agarose gel. (In general: A gel shift assay detects complexes by their altered migration in electrophoresis.)
For data set [2], the target named is T1, MBP-VP5. Briefly: EMSA; 10 pmol protein, 0.1 pmol probe; Hill coefficient ~1.499 (0.05-0.16 uM) and ~4.972 (0.2-0.48 uM); 25 mM HEPES-KOH pH 7.5, 100 mM NaCl, 10 ul, 30 min at room temperature; 2% agarose gel.
For data set [3], the target named is T1, MBP-VP5. Briefly: competition; vs HEX-RNA1, 5-100 fold excess, 2 pmol protein; 25 mM HEPES-KOH pH 7.5, 100 mM NaCl, 10 ul, 30 min at room temperature; 2% agarose gel.

On to GTGTAGTAATCGTCCATTGTGTCT (ssDNA) [DNA1], for which the binding result with MBP-VP5 [1] was “binds”.

Turning to GUGUAGUAAUCGUCCAUUGUGUCU (ssRNA) [RNA1], in the data set with MBP-VP5 [2], the binding result is recorded as “binds”.

B1: RNA1/RNA2 (dsRNA)
RNA 1: GUGUAGUAAUCGUCCAUUGUGUCU
RNA 2: AGACACAAUGGACGAUUACUACAC
As for B1, the binding result in the data set with MBP-VP5 [1] is on record as “binds”.

Consider GUGUAGUAAUCGUCCAUUGUGUCU (ssRNA) [RNA10], for which, in the data set with MBP-VP5 [3], the binding result is “binds”.
